Measured values as given in the supplement of paper PMC12042874.
± gives the uncertainty stated by the source.

Assay: amyloid nucleation score (Sup35N fusion, yeast selection) (log enrichment); library NNK2; higher = more nucleation; inactive = no reads after selection
Procedure, shortened: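 Nucleation score: DiMSum log enrichment of output over input reads, centred on the mode score of non-aggregating sequences. Only sequences with at least 100 input reads were kept. Reads came from Illumina sequencing of plasmid inserts before and after 7 days of growth at 30°C without adenine and uracil, in psi-negative yeast expressing Sup35N fused to peptides of 20 random codons after 24 hours of induction with 100 μM copper sulfate.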

Row | Substance | amyloid nucleation score
1 | FTAMNIGNACMESQALPWNL | 0.198 ± 0.65
2 | SGVLHRCEIPVLRACRLLL | 0.425 ± 0.37
3 | MVLRKLTYILPTRLLGQRFL | inactive
4 | SKFYNSYSYFTLFVVVLMFD | -0.936 ± 1.1
5 | YDYFTLSTTGLWLAIYMWWC | 0.287 ± 0.56
6 | DTFPKHSQHAVVKRPQIYID | -1.04 ± 1.1
7 | DGFSYDPFSMVSIVVRFVVG | 0.99 ± 0.32
8 | CCPASYMQYEFLGRMSGGCW | 2.82 ± 0.15
9 | VMFILVYTLFP | 0.068 ± 0.65
10 | QLDRCLILPWTFSWCMDCVL | 4.92 ± 0.053
11 | LMGLQMSLPWSNEIVRVIPD | -0.663 ± 0.49
12 | VEDDDN | -0.2 ± 0.63
13 | FNVFFAS | 5.97 ± 0.055
14 | YINLIWFSYMFGESFARGQR | 4 ± 0.13
15 | GYCETNFGGCVPDWMEMLQR | 6.67 ± 0.061
16 | GLPYVSMINLHASYTERMVW | -0.687 ± 0.64
17 | SFFFMKSWSGRPPIQLGV | -0.113 ± 0.65
18 | NGGTMLMRLDRS | -0.216 ± 0.63
19 | IHLPKCISVSFRVSVGFLDM | inactive
20 | AIWSVLYGGRYTMPHSIFGA | 0.448 ± 0.38
21 | TNDMVDHVRRSNHDI | 0.871 ± 0.31
22 | RNHRRSWMPSFRTKLNGGWF | 3.58 ± 0.14
23 | FDSEQLIRYD | -0.909 ± 1.1
24 | RWQCLVEHMRSANLGVRRGP | 0.074 ± 0.41
25 | VVEGGRFLVDSRWKVVSRGC | -0.719 ± 0.38
26 | LRGLSAPACKYQWQDEMYD | -0.628 ± 0.45

Row | Substance | amyloid nucleation score
27 | ANSMLVF | -0.573 ± 0.4
28 | FPHLFKSKNPSRNMNSTSPG | inactive
29 | LFKPLRNR | -0.918 ± 0.33
30 | DLSNSIVLLGFDNSQWLRDA | 1.78 ± 0.095
31 | FYGGDA | 0.005 ± 0.39
32 | LIIFTGYRCSLPFMSFF | -0.945 ± 1
33 | VLIALKLFWIVQWYICAICV | -0.099 ± 0.39
34 | TYKCLTRATKGRNHVFRFCV | 1.08 ± 0.15
35 | HERGTNVLYTLVEWGARAVS | 1.16 ± 0.49
36 | SISSGFFWKEAIKGSAVSLW | 0.36 ± 0.8
37 | SMFIVHSCSTWLTNNGLNHM | 3.19 ± 0.16
38 | ENGAKVLVIVYKGYPLVPWV | -0.089 ± 0.46
39 | VFYSWKKLVSVLTSRYGFHV | -0.965 ± 0.78
40 | CRVYMVDWGVVLRFDVRGSS | -0.909 ± 0.78
41 | NFHGDAYLESVRWIHIRNKR | -0.735 ± 0.48
42 | FNCPRSAMIVNQRHRILSGV | -0.057 ± 0.43
43 | IFSLP | -0.464 ± 0.5
44 | VSEIRDFCVVIGF | 0.573 ± 0.36
45 | FSWASAQLIHSV | 0.59 ± 0.64
46 | QGLGTRLRDRLTVYCRFTAF | -0.69 ± 0.61
47 | CSVYVCQLSLCCSVY | 6.426 ± 0.06
48 | SVLSFMRYLCGWQA | 6.513 ± 0.053
49 | MFWRITGAI | 0.402 ± 0.34
50 | RRNFGGNLNWIDIVYEHVCL | 0.09 ± 0.33
51 | YTMWGWLAAMVREMETLGSK | -0.284 ± 0.61
52 | NADLMGIKSVKGS | -0.352 ± 1.1

Row | Substance | amyloid nucleation score
53 | YTLRSNTNASMRRHLMQVPR | -0.531 ± 1.1
54 | VWFFGSYHVCWDCTF | 0.378 ± 0.74
55 | PGHWLTNINISFSACKCLMM | 8.227 ± 0.045
56 | GSRYLIGVEYE | 0.319 ± 0.56
57 | CLGSLHNVLQALAMTEPSNY | 0.044 ± 0.79
58 | GPLFHTTRLRDNHM | 3.11 ± 0.11
59 | VHLANSMLY | 3.15 ± 0.047
60 | FKGSWHAFECEAYEYAWV | -0.018 ± 1.1
61 | SCSHYTVECKGAWGFCACGH | 0.085 ± 0.36
62 | MLVVLMFSLSDSI | 1.67 ± 0.1
63 | VTRTDVKPKVVGRRRARLCL | 0.705 ± 0.44
64 | NLCHSNKCLNSRFSITHWV | 0.246 ± 0.8
65 | QTFDYW | 0.256 ± 0.74
66 | LFVVTVTIMCYLSKEYVGLP | 0.039 ± 0.51
67 | CEFMCLQGSRDRIDFLHRSE | -1 ± 0.34
68 | SQLVMHYKQVC | 1.82 ± 0.14
69 | CKWMLEENMGQEADSV | -0.289 ± 0.21
70 | TCQPGRLALNAKERGSGDRL | 0.482 ± 0.3
71 | SIKCEFELIDLTSQAPCEGQ | 0.611 ± 0.5
72 | MYLTCFWVGQDGKGRKDGGV | 5.62 ± 0.078
73 | YQINCLGSYDNLQCMIGGHV | 5.965 ± 0.037
74 | QDVGNKLKIWANITCARLWY | -0.067 ± 0.65
75 | RAMHQDSVFVRWVEPPYCWC | -0.024 ± 1
76 | PDVPIFCPYAAAMKVAVCYR | -0.526 ± 0.76
77 | VMWLSVRL | 0.535 ± 0.44
78 | ESMGGEYQGGVFVG | 0.448 ± 0.38

Row | Substance | amyloid nucleation score
79 | KTAVSNVRCMY | -0.227 ± 0.62
80 | CMWGVDQPCLTTLTEAVLKP | 1.96 ± 0.12
81 | DSASNVW | 0.553 ± 0.37
82 | PKYTDCCFFNLILIGWSVFP | 5.272 ± 0.052
83 | QKMRPNIKVFVYKNVGYNWC | 8.562 ± 0.054
84 | TFVKGKMFNLTRVWVLPYWT | 0.318 ± 0.46
85 | TVRFVRFYSPLWLSVTYRLT | 0.412 ± 0.55
86 | NETCGYLNKNWLL | 0.04 ± 0.45
87 | VLSYRVHLEPARCFSGGYCY | 0.512 ± 0.19
88 | LVLENHWYLLVCRNPVQ | -0.213 ± 0.65
89 | IDCRELFVSLQVNRMLE | 0.234 ± 0.49
90 | PSIRWNVIIAMSYLQS | 1.89 ± 0.16
91 | CDMFLSYLRT | 1.74 ± 0.23
92 | KDHRSLSGRDMFRGTLVVVM | 0.328 ± 0.19
93 | VWKNPYIGVHLLHDLKS | -0.391 ± 0.21
94 | KISCKKNWGAYVPF | -0.594 ± 1.1
95 | YWLECILSGVYHDGYDSYSL | inactive
96 | CDVRMRVAGRAR | 3.19 ± 0.11
97 | SSRRGNDGWRCGPSCGGCTG | 3.65 ± 0.082
98 | EVHLEVLTNCKKV | 5.05 ± 0.051
99 | KLCKVYVRRRSIICWGNCVP | -0.481 ± 1.1
100 | RMLLIGIRCLIMSWHMLHN | -0.029 ± 0.37
101 | WTWGALDRRSGLFEVGGMYF | 0.449 ± 0.47
102 | SPWGPLLAFTSKTNPIQWMT | -0.196 ± 0.46
103 | SSVQNCSVCVGGPMYREFSW | 4.994 ± 0.042
104 | IPILSFMRGLALSRSATYMS | inactive

Row | Substance | amyloid nucleation score
105 | AGLRGIHEIGLLDAKWDDNH | inactive
106 | EEWTVNCC | 5.766 ± 0.046
107 | QHLFFIYSCYTKLGGTLAGE | 0.746 ± 0.2
108 | FTESCQCS | -0.08 ± 0.31
109 | CLKEMVKVCRGWWRANGSGR | 0.433 ± 0.46
110 | DWCTAAGDEMDMVVGGKVPN | 0.427 ± 0.34
111 | WASFTSACRRLLSPCTPRSG | 5.22 ± 0.1
112 | VIFVRYWGVDYHLADLVIN | -0.563 ± 0.55
113 | LYLTSNIFLCLIYDL | 0.576 ± 0.18
114 | GNKCLSWVES | -0.12 ± 0.23
115 | RRIVGFFANDRTLIYLVGYI | -0.902 ± 0.49
116 | SWRENFGWGICCSTVWPRCR | 1.86 ± 0.21
117 | SACLFLDME | 0.664 ± 0.41
118 | FAIHLKLMYVGTDFSNVRDI | -1.15 ± 0.76
119 | NIRLRFCFRQMEWHNRFRDC | 3.93 ± 0.069
120 | GSFLFYCILPIYFLGAWMRV | -1.4 ± 0.78
121 | ALYLL | 0.154 ± 0.23
122 | TGRTTF | inactive
123 | GMVNIYDLCYMLLY | -1.21 ± 0.31
124 | LQCRLIRVMYVMHCDVWVV | -0.087 ± 0.24
125 | NLRRCSHFHLACP | inactive
126 | NFYKEFGGMIAYLDKILREE | -1.13 ± 0.55
